This is an account of results in the supplement of paper PMC11246515.

The data set is described as follows: total protein half-life in vivo (active degradation + dilution); higher = more stable protein.
Where [1] appears, read: E. coli NCM3722 delta-clpP delta-lon delta-hslV, growth: N-lim chemostat, doubling time 6 h.
[2] abbreviates: E. coli NCM3722 delta-clpP, growth: N-lim chemostat, doubling time 6 h.
Setting [3] is: E. coli NCM3722 delta-hslV, growth: N-lim chemostat, doubling time 6 h.
The mark [4] stands for this setting: E. coli NCM3722 delta-lon, growth: N-lim chemostat, doubling time 6 h.
Where [5] appears, read: E. coli NCM3722 delta-smpB, growth: N-lim chemostat, doubling time 6 h.
Where [6] appears, read: wild type E. coli NCM3722, growth: C-lim chemostat, doubling time 12 h.
[7] abbreviates: wild type E. coli NCM3722, growth: N-lim chemostat, doubling time 6 h.
Where [8] appears, read: wild type E. coli NCM3722, growth: N-lim chemostat, doubling time 12 h.
Where [9] appears, read: wild type E. coli NCM3722, growth: P-lim chemostat, doubling time 6 h.
The mark [10] stands for this setting: wild type E. coli NCM3722, growth: P-lim chemostat, doubling time 12 h.
Where [11] appears, read: wild type E. coli NCM3722, growth: C-lim chemostat, doubling time 3 h.
Setting [12] is: wild type E. coli NCM3722, growth: C-lim chemostat, doubling time 6 h.

± gives the standard deviation of the averaged measurements.

Take “MNKDEAGGNWKQFKGKVKEQWGKLTDDDMTIIEGKRDQLVGKIQERYGYQKDQAEKEVVDWETRNEYRW”: the “total protein half-life in vivo” value under setting [1] came out at 6.99 ± 1.3 h; the “total protein half-life in vivo” value under setting [2] is 4.33 ± 0.086 h; the “total protein half-life in vivo” value under setting [3] came to 4.42 h; the “total protein half-life in vivo” value under setting [4] is 6.177 ± 0.038 h; the “total protein half-life in vivo” value under setting [5] came to 3.64 ± 0.25 h; the “total protein half-life in vivo” value under setting [6] is 11 ± 3.5 h. For the same sequence, the “total protein half-life in vivo” value under setting [7] came to 3.59 ± 0.14 h, the “total protein half-life in vivo” value under setting [8] was 6.53 ± 1.5 h, the “total protein half-life in vivo” value under setting [9] came to 3.72 ± 0.58 h and the “total protein half-life in vivo” value under setting [10] came out at 6.92 ± 0.27 h.
For the sequence “MLGKYKAVLALLLLIILVPLTLLMTLGLWVPTLAGIWLPLGTRIALDESPRITRKGLIIPDLRYLVGDCQLAHITNASLSHPSRWLLNVGTVELDSACLAKLPQTEQSPAAPKTLAQWQAMLPNTWINIDKLIFSPWQEWQGKLSLALTSDIQQLRYQGEKVKFQGQLKGQQLTVSELDVVAFENQPPVKLVGEFAMPLVPDGLPVSGHATATLNLPQEPSLVDAELDWQENSGQLIVLARDNGDPLLDLPWQITRQQLTVSDGRWSWPYAGFPLSGRLGVKVDNWQAGLENALVSGRLSVLTQGQAGKGNAVLNFGPGKLSMDNSQLPLQLTGEAKQADLILYARLPAQLSGSLSDPTLTFEPGALLRSKGRVIDSLDIDEIRWPLAGVKVTQRGVDGRLQAILQAHENELGDFVLHMDGLANDFLPDAGRWQWRYWGKGSFTPMNATWDVAGKGEWHDSTITLTDLSTGFDQLQYGTMTVEKPRLILDKPIVWVRDAQHPSFSGALSLDAGQTLFTGGSVLPPSTLKFSVDGRDPTYFLFKGDLHAGEIGPVRVNGRWDGIRLRGNAWWPKQSLTVFQPLVPPDWKMNLRDGELYAQVAFSAAPEQGFRAGGHGVLKGGSAWMPDNQVNGVDFVLPFRFADGAWHLGTRGPVTLRIAEVINLVTAKNITADLQGRYPWTEEEPLLLTDVSVDVLGGNVLMKQLRMPQHDPALLRLNNLSSSELVSAVNPKQFAMSGAFSGALPLWLNNEKWIVKDGWLANSGPMTLRLDKDTADAVVKDNMTAGSAINWLRYMEISRSSTKINLDNLGLLTMQANITGTSRVDGKSGTVNLNYHHEENIFTLWRSLRFGDNLQAWLEQNARLPGNDCPQGKECEEKQ”, the “total protein half-life in vivo” value reads like this: under setting [2], 5.985 ± 0.043 h; under setting [3], 6.03 ± 0.13 h; under setting [4], 6.22 ± 0.2 h; under setting [5], 5.57 ± 0.078 h; under setting [11], 3.236 ± 0.032 h; under setting [12], 6.2 ± 0.12 h. Also, the “total protein half-life in vivo” value came out at 10.8 ± 0.14 h under setting [6]; 6 ± 0.47 h under setting [7]; 12.3 ± 0.45 h under setting [8]; 6.06 ± 0.32 h under setting [9]; 12.17 ± 0.039 h under setting [10].
Regarding “MVQRITIAPQGPEFSRFVMGYWRLMDWNMSARQLVSFIEEHLDLGVTTVDHADIYGGYQCEAAFGEALKLAPHLRERMEIVSKCGIATTAREENVIGHYITDRDHIIKSAEQSLINLATDHLDLLLIHRPDPLMDADEVADAFKHLHQSGKVRHFGVSNFTPAQFALLQSRLPFTLATNQVEISPVHQPLLLDGTLDQLQQLRVRPMAWSCLGGGRLFNDDYFQPLRDELAVVAEELNAGSIEQVVYAWVLRLPSQPLPIIGSGKIERVRAAVEAETLKMTRQQWFRIRKAALGYDVP”, the “total protein half-life in vivo” value worked out at 5.21 ± 0.14 h under setting [1]; 5.59 ± 0.96 h under setting [2]; 4.95 ± 0.13 h under setting [3]; 5.07 ± 0.77 h under setting [4]; 4.67 ± 0.12 h under setting [5]; 2.86 ± 0.26 h under setting [11]. The “total protein half-life in vivo” value reads like this: under setting [12], 5.71 ± 0.085 h; under setting [6], 9.47 ± 0.64 h; under setting [7], 5 ± 0.25 h; under setting [8], 8.62 ± 0.69 h; under setting [9], 5.79 ± 0.17 h; under setting [10], 10.9 ± 0.49 h.
In the case of “MRKYRLSEEQRAFSYQEDGTKKNVLLRQIIAISDFNDVIAGTAGGWIDRETVLAQEGNCWIYDQNAIAFGGAVISGNTRITGTSVLWGEVYATDNVWIDNSEISQGAYISDSVTIHDSLVYGQCRIFGHALIDQHSMIVAAQGLTPDHQLLLQIYDRARVSASRIVHQAQIYGDAVVRYAFIEHRAEVFDFASIEGNEENNVWLCDCAKVYGHAQVKAGIEEDAIPTIHYSSQVAEYAIVEGNCVLKHHVLVGGNAVVRGGPILLDEHVVIQGESRITGAVIIENHVELTDHAVVEAFDGDTVHVRGPKVINGEERITRTPLAGLL”, the “total protein half-life in vivo” value under setting [2] was 4.51 h; the “total protein half-life in vivo” value under setting [3] was 3.02 h; the “total protein half-life in vivo” value under setting [5] was 2.62 ± 0.092 h; the “total protein half-life in vivo” value under setting [11] turned out to be 2.39 h; the “total protein half-life in vivo” value under setting [6] was 6.16 h; the “total protein half-life in vivo” value under setting [7] was 3.27 h. Also, the “total protein half-life in vivo” value was 5.74 h under setting [8] and 8.26 ± 1 h under setting [10].
As to “MSTVTITDLARENVRNLTPYQSARRLGGNGDVWLNANEYPTAVEFQLTQQTLNRYPECQPKAVIENYAQYAGVKPEQVLVSRGADEGIELLIRAFCEPGKDAILYCPPTYGMYSVSAETIGVECRTVPTLDNWQLDLQGISDKLDGVKVVYVCSPNNPTGQLINPQDFRTLLELTRGKAIVVADEAYIEFCPQASLAGWLAEYPHLAILRTLSKAFALAGLRCGFTLANEEVINLLMKVIAPYPLSTPVADIAAQALSPQGIVAMRERVAQIIAEREYLIAALKEIPCVEQVFDSETNYILARFKASSAVFKSLWDQGIILRDQNKQPSLSGCLRITVGTREESQRVIDALRAEQV”, the “total protein half-life in vivo” value by setting is: under setting [1], 3.92 ± 0.55 h; under setting [2], 3.15 ± 0.066 h; under setting [3], 3.41 ± 0.045 h; under setting [4], 3.73 ± 0.54 h; under setting [5], 3.535 ± 0.032 h; under setting [11], 3.02 ± 0.27 h. The “total protein half-life in vivo” value is, setting by setting: under setting [12], 5.38 ± 0.12 h; under setting [6], 9.87 ± 1.3 h; under setting [7], 3.247 ± 0.012 h; under setting [8], 4.98 ± 0.15 h; under setting [9], 5.32 ± 0.39 h; under setting [10], 10.9 ± 0.23 h.
In the case of “MHNQAPIQRRKSTRIYVGNVPIGDGAPIAVQSMTNTRTTDVEATVNQIKALERVGADIVRVSVPTMDAAEAFKLIKQQVNVPLVADIHFDYRIALKVAEYGVDCLRINPGNIGNEERIRMVVDCARDKNIPIRIGVNAGSLEKDLQEKYGEPTPQALLESAMRHVDHLDRLNFDQFKVSVKASDVFLAVESYRLLAKQIDQPLHLGITEAGGARSGAVKSAIGLGLLLSEGIGDTLRVSLAADPVEEIKVGFDILKSLRIRSRGINFIACPTCSRQEFDVIGTVNALEQRLEDIITPMDVSIIGCVVNGPGEALVSTLGVTGGNKKSGLYEDGVRKDRLDNNDMIDQLEARIRAKASQLDEARRIDVQQVEK”, the “total protein half-life in vivo” value reads like this: under setting [1], 4.85 ± 0.2 h; under setting [2], 2.41 ± 0.11 h; under setting [3], 3.23 ± 0.18 h; under setting [4], 3.18 ± 0.078 h; under setting [5], 2.88 ± 0.19 h; under setting [11], 2.61 ± 0.25 h. The “total protein half-life in vivo” value reads like this: under setting [12], 4.69 ± 0.24 h; under setting [6], 7.78 ± 0.65 h; under setting [7], 3.05 ± 0.092 h; under setting [8], 4.29 ± 0.3 h; under setting [9], 4.01 ± 0.28 h; under setting [10], 7.02 ± 0.51 h.
For the sequence “MKKATCLTDDQRWQSVLARDPNADGEFVFAVRTTGIFCRPSCRARHALRENVSFYANASEALAAGFRPCKRCQPEKANAQQHRLDKITHACRLLEQETPVTLEALADQVAMSPFHLHRLFKATTGMTPKAWQQAWRARRLRESLAKGESVTTSILNAGFPDSSSYYRKADETLGMTAKQFRHGGENLAVRYALADCELGRCLVAESERGICAILLGDDDATLISELQQMFPAADNAPADLMFQQHVREVIASLNQRDTPLTLPLDIRGTAFQQQVWQALRTIPCGETVSYQQLANAIGKPKAVRAVASACAANKLAIIIPCHRVVRGDGTLSGYRWGVSRKAQLLRREAENEER”, the “total protein half-life in vivo” value reads like this: under setting [2], 3.82 ± 0.28 h; under setting [3], 2.03 h; under setting [4], 3.25 ± 0.14 h; under setting [5], 2.46 h; under setting [12], 3.38 h; under setting [6], 4.07 h. Also, the “total protein half-life in vivo” value was determined as 2.22 h under setting [7], 3.48 h under setting [8], 1.81 h under setting [9] and 3.5 ± 0.11 h under setting [10].
